The results in this text go back to US20090099087A1 (STC UNM, published 2009).

Changes are numbered by the printed parent chain. Names and notes keep the numbering of the source. Some results are limits rather than exact numbers.

First the molecules themselves.
B1: wild-type first Kunitz-type domain (KD1) of human TFPI-2, His-tagged, E. coli (other)
chain: DAAQEPTGNNAEICLLPLDYGPCRALLLRYYYDRYTQSCRQFLYGGCEGNANNFYTWEACDDACWRIEKVPKV
notes: the monomer was purified; also called wild-type KD1; TFPI-2 KD1; not shown: N-terminal decahistidine-tag leader and enterokinase cleavage site from pET19b
B2: R29D KD1 (other)
chain: B1 chain with R29D
notes: Point mutant of His-tagged KD1, KD1 numbering; also called R29D (R20D); not shown: N-terminal decahistidine-tag leader and enterokinase cleavage site from pET19b
B3: R24Q KD1 (other)
chain: B1 chain with R24Q
notes: Point mutant of His-tagged KD1, KD1 numbering; also called R24Q (R15Q); not shown: N-terminal decahistidine-tag leader and enterokinase cleavage site from pET19b
B4: Y20A KD1 (other)
chain: B1 chain with Y20A
notes: Point mutant of His-tagged KD1, KD1 numbering; also called Y20A (Y11A); not shown: N-terminal decahistidine-tag leader and enterokinase cleavage site from pET19b
B5: D19A KD1 (other)
chain: B1 chain with D19A
notes: Point mutant of His-tagged KD1, KD1 numbering; also called D19A (D10A); not shown: N-terminal decahistidine-tag leader and enterokinase cleavage site from pET19b
B6: L26Q KD1 (other)
chain: B1 chain with L26Q
notes: Point mutant of His-tagged KD1, KD1 numbering; also called L26Q (L17Q); not shown: N-terminal decahistidine-tag leader and enterokinase cleavage site from pET19b
B7: R29K KD1 (other)
chain: B1 chain with R29K
notes: Point mutant of His-tagged KD1, KD1 numbering; also called R29K (R20K); not shown: N-terminal decahistidine-tag leader and enterokinase cleavage site from pET19b
B8: G21D KD1 (other)
chain: B1 chain with G21D
notes: Point mutant of His-tagged KD1, KD1 numbering; also called G21D (G12D); not shown: N-terminal decahistidine-tag leader and enterokinase cleavage site from pET19b
B9: R29A KD1 (other)
chain: B1 chain with R29A
notes: Point mutant of His-tagged KD1, KD1 numbering; also called R29A (R20A); not shown: N-terminal decahistidine-tag leader and enterokinase cleavage site from pET19b
B10: F42A KD1 (other)
chain: B1 chain with F42A
notes: Point mutant of His-tagged KD1, KD1 numbering; also called F42A (F33A); not shown: N-terminal decahistidine-tag leader and enterokinase cleavage site from pET19b
B11: R24K KD1 (other)
chain: B1 chain with R24K
notes: also called R24K (R15K); R24K KD1 polypeptide; not shown: N-terminal extension from the expression vector
B12: recombinant human tissue factor pathway inhibitor-2 (TFPI-2), full-length (other)
chain: DAAQEPTGNNAEICLLPLDYGPCRALLLRYYYDRYTQSCRQFLYGGCEGNANNFYTWEACDDACWRIEKVPKVCRLQVSVDDQCEGSTEKYFFNLSSMTCEKFFSGGCHRNRIENRFPDEATCMGFCAPKKIPSFCYSPKDEGLCSANVTRYYFNPRYRTCDAFTYTGCGGNDNNFVSREDCKRACAKALKKKKKMPKLRFASRIRKIRKKQF
notes: Eukaryotically expressed recombinant full-length protein, described as a 213 amino acid polypeptide and prepared by a published method (Sprecher et al.); also called full-length TFPI-2; intact TFPI-2

T3 sequence (P00761 9-231 limits assumed): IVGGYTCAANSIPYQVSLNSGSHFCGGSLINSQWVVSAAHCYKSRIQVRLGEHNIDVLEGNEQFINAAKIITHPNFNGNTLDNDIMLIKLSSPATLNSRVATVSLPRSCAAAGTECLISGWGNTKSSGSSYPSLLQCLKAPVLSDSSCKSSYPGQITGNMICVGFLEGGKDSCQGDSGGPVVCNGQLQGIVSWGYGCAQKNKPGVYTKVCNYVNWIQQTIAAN
T1 sequence (P08709 61-466 limits assumed, chain 1 of 2): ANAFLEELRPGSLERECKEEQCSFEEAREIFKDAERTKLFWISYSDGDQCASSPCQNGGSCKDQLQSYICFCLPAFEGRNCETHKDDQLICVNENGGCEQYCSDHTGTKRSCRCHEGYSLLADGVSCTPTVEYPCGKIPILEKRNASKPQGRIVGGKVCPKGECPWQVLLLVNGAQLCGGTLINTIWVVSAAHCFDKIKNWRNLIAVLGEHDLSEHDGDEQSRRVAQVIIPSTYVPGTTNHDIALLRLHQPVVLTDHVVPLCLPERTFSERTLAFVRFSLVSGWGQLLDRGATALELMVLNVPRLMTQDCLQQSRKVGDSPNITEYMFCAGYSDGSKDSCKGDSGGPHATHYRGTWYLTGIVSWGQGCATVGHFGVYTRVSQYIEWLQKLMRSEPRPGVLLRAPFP
T1 sequence (P13726 33-251 limits assumed, chain 2 of 2): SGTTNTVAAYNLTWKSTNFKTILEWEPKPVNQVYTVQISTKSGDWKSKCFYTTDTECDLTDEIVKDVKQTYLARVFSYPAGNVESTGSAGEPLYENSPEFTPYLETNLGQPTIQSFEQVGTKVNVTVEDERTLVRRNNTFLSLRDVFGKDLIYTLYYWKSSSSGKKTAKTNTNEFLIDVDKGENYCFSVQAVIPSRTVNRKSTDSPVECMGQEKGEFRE

The first test has as its target T1, factor VIIa-tissue factor complex (human recombinant factor VIIa with recombinant soluble human tissue factor) (human, UniProt P08709 61-466; P13726 33-251, limits assumed).
T1 construct: The complex was formed from 50 nM factor VIIa and 100 nM soluble tissue factor in 5 mM CaCl2; Factor VIIa is itself a two-chain enzyme; also called FVIIa-TF; VIIa-TF
In words: chromogenic (S-2288) amidolytic inhibition assay, FVIIa 50 nM / soluble TF 100 nM. On the procedure:
(§1) Recombinant soluble human tissue factor (100 nM) and factor VIIa (50 nM) were incubated in a TBS-BSA buffer/5 mM CaCl₂ for 15 minutes at 37° C. Following this incubation, aliquots (100 μl) were dispensed into a 96-well microtitration plate and treated with serial dilutions of inhibitors dissolved in TBS buffer. After 15 minutes of incubation, 30 μl of S-2288 (final concentration, 1 mM) was added to each well and the absorbance at 405 nm was determined as described earlier.
As to B1, the Ki (as a rule, the dissociation constant of the complex between target and ligand, obtained from inhibition or displacement) was 1.64 µM.

As to B2, the Ki turned out to be 44.6 µM.

B3: the Ki amounted to 55.7 µM.

With B4, the Ki is 1.35 µM.

In the case of B5, the Ki was found to be 1.96 µM.

Regarding B6, the Ki amounted to 54 µM.

Take B7: the Ki amounted to 1.11 µM.

B8: the Ki is 26 µM.

For B9, the Ki amounted to 3.93 µM.

Consider B10, for which the Ki is 61.2 µM.

Turning to B11, the Ki turned out to be 8.55 µM.

As for B12, the Ki came out at 1.91 µM.

In a further test the target is T2, human plasmin (human, UniProt P00747 97-810, limits assumed). The test is described as follows: chromogenic amidolytic inhibition assay, plasmin; reference BPTI. On the procedure: (§2) Trypsin and plasmin inhibition assays were performed as described elsewhere (Petersen et al., Biochemistry, 35:266-272, 1996). Briefly, trypsin and plasmin were incubated with various concentrations of inhibitor preparations for 15 minutes at 37° C. in a 96-well microtitration plate. The chromogenic substrate S-2251 was then added and residual amidolytic activity was measured in a Molecular Devices UVₘₐₓ kinetic microplate reader.
T2 sequence (P00747 97-810 limits assumed): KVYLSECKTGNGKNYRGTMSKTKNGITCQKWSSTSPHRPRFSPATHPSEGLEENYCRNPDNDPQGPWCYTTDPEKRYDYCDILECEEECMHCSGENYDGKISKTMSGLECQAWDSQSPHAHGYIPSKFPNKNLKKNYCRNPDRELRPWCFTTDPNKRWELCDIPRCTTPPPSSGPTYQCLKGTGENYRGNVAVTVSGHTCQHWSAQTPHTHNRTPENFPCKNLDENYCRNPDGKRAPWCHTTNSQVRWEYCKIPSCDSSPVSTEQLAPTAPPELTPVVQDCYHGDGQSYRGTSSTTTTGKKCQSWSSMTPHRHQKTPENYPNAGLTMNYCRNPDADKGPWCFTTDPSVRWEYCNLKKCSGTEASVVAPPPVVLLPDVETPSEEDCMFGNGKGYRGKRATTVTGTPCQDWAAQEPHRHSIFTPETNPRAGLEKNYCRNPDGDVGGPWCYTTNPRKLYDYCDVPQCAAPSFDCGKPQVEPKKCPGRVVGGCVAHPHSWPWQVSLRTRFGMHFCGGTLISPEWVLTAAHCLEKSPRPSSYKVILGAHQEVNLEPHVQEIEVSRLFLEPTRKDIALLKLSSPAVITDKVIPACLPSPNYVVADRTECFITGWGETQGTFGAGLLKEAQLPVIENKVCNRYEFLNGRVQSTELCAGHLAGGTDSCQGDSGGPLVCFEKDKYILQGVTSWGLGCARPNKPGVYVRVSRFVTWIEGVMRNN
On to B1, for which the “fold higher Ki than BPTI” value is about 3 fold.

Another test concerns the target T1, factor VIIa-tissue factor complex …. The test is described as follows: chromogenic amidolytic inhibition assay; reference wild-type KD1. On the procedure:
as §2, §1
Consider B6, for which the “fold reduction in inhibitory potency (against wild-type KD1)” value (“fold reduction in inhibitory potency” for short) was at least 10 fold.

For a further test, the target named is T2, human plasmin. Described as above. On the procedure: as §2, §1
B6: the “fold reduction in inhibitory potency” value is at least 10 fold.

Another test has as its target T3, porcine trypsin (porcine, UniProt P00761 9-231). The description is as above. On the procedure:
as §2, §1
Consider B6, for which the “fold reduction in inhibitory potency” value is at least 10 fold.

In a further test the target is T2, human plasmin. The test is described as follows: chromogenic (S-2251) amidolytic inhibition assay, plasmin 30 nM. On the procedure:
Example I provides an illustrative example of assessment of the inhibitory activity. […] The chromogenic substrate S-2251 (D-Val-Leu-Lys-p-nitroanilide; DiaPharma Group Inc., West Chester, Ohio) was then added and residual plasmin amidolytic activity was measured at 405 nm in a Molecular Devices UVₘₐₓ kinetic microplate reader.
as §2
B1 had a Ki of 0.003 µM.

Molecule B2 gave a Ki of 0.261 µM.

On to B3, for which the affinity corresponds to a Ki of 0.048 µM.

B4 registered an inhibition constant (Ki) of 0.016 µM.

B5 returned a Ki of 0.118 µM.

The molecule B6 returned a Ki of 0.029 µM.

Molecule B7 returned a Ki of 0.005 µM.

As to B8, the Ki was 0.059 µM.

In turn, B9 showed an inhibitory constant (Ki) of 0.012 µM.

B10 showed a Ki of 0.079 µM.

B11 yielded a Ki of 0.00085 µM.

The molecule B12 registered a Ki of 0.009 µM.

A further test concerns the target T2, human plasmin. The test is described as follows: chromogenic amidolytic inhibition assay, plasmin; reference wild-type KD1. On the procedure:
as §2
Take B5: the “fold loss of inhibitory activity (against wild-type KD1)” value is about 40 fold.

The target in a further test is T3, porcine trypsin. The test is described as follows: chromogenic (S-2251) amidolytic inhibition assay, trypsin 50 nM. On the procedure:
as §2
B1 returned a Ki of 0.013 µM.

Molecule B2 gave a Ki of 4.6 µM.

As for B3, the affinity corresponds to a Ki of 0.296 µM.

With B4, the Ki came out at 0.008 µM.

B5 showed a Ki of 0.015 µM.

Molecule B6 gave a Ki of 0.162 µM.

In turn, B7 showed a Ki of 0.02 µM.

Take B8: the Ki was found to be 0.042 µM.

As for B9, the Ki was 0.052 µM.

Consider B10, for which the Ki was found to be 0.155 µM.

Regarding B11, the Ki worked out at 0.008 µM.

Molecule B12 yielded a Ki of 0.021 µM.

The next test has as its target T3, porcine trypsin. The test is described as follows: chromogenic amidolytic inhibition assay, trypsin; reference BPTI. On the procedure:
as §2
As to B1, the “fold less potent than BPTI” value amounted to 2 fold.

For the next test, the target named is T1, factor VIIa-tissue factor complex …. In words: chromogenic amidolytic inhibition assay, FVIIa-TF; reference wild-type KD1. On the procedure:
as §1
For B11, the “fold reduction of inhibitory activity (against wild-type KD1)” value is about 5 fold.

In the next test the target is T3, porcine trypsin. In words: chromogenic amidolytic inhibition assay, trypsin; reference full-length TFPI-2. On the procedure:
as §2
Consider B1, for which the “fold higher inhibitory activity than full-length TFPI-2” value was about 2 fold.

A further test has as its target T2, human plasmin. In words: chromogenic amidolytic inhibition assay, plasmin; reference full-length TFPI-2. On the procedure: as §2
Take B1: the “fold more potent than full-length TFPI-2” value came out at 3 fold.
